# Data as given in patent publication US7572594B2, “Screening assays for agonists or antagonists or receptor activator of NF-κB” (Immunex Corporation, priority 2000, dated 2009).
# B1: RANKL: RANK ligand used to treat RAW264.7 reporter cells; form not specified (protein)
# chain: MRRASRDYTKYLRGSEEMGGGPGAPHEGPLHAPPPPAPHQPPAASRSMFVALLGLGLGQVVCSVALFFYFRAQMDPNRISEDGTHCIYRILRLHENADFQDTTLESQDTKLIPDSCRRIKQAFQGAVQKELQHIVGSQHIRAEKAMVDGSWLDLAKRSKLEAQPFAHLTINATDIPSGSHKVSLSSWYHDRGWAKISNMTFSNGKLIVNQDGFYYLYANICFRHHETSGDLATEYLQLMVYVTKTSIKIPSSHTLMKGGSTKYWSGNSEFHFYSINVGGFFKLRSGEEISIEVSNPSLLDPDQDATYFGAFKVRDID
# B2: RANK-L: RANK ligand, Type 2 transmembrane protein that binds to and activates RANK; human full-length SEQ ID NO:6 (protein, listed as Homo sapiens)
# chain: B1 chain
# B3: FEO RANK: mutated form of RANK isolated from patients with familial expansile osteolysis (SEQ ID NOS:9 and 10), expressed from transfected DNA (protein, listed as Homo sapiens)
# chain: MAPRARRRRPLFALLLLCALLLLCALLARLQVALQIAPPCTSEKHYEHLGRCCNKCEPGKYMSSKCTTTSDSVCLPCGPDEYLDSWNEEDKCLLHKVCDTGKALVAVVAGNSTTPRRCACTAGYHWSQDCECCRRNTECAPGLGAQHPLQLNKDTVCKPCLAGYFSDAFSSTDKCRPWTNCTFLGKRVEHHGTEKSDAVCSSSLPARKPPNEPHVYLPGLIILLLFASVALVAAIIFGVCYRKKGKALTANLWHWINEACGRLSGDKESSGDSCVSTHTANFGQQGACEGVLLLTLEEKTFPEDMCYPDQGGVCQGTCVGGGPYAQGEDARMLSLVSKTEIEEDSFRQMPTEDEYMDRPSQPTDQLLFLTEPGSKSTPPFSEPLEVGENDSLSQCFTGTQSTVGSESCNCTEPLCRTDWTPMSSENYLQKEVDSGHCPHWAASPSPNWADVCTGCRNPPGEDCEPLVGSPKRGPLPQCAYGMGLPPEEEASRTEARDQPEDGADGRLPSSARAGAGSGSSPGGQSPASGNVTGNSNSTFISSGQVMNFKGDIIVVYVSQTSQEGAAAAAEPMGRPVQEETLARRDSFAGNGPRFPDPCGGPEGLREPEKASRPVQEQGGAKA
# What was measured:
# mouse TRAP mRNA = experiment: Quantitative RT-PCR of TRAP mRNA in RAW 264.7 cells; assay type: cell-based; conditions: RANKL/LZ 200 ng/ml or TNFα 20 ng/ml, various times
# mouse MMP-9 mRNA = experiment: Quantitative RT-PCR of MMP-9 mRNA in RAW 264.7 cells; assay type: cell-based; conditions: RANKL/LZ 200 ng/ml or TNFα 20 ng/ml, various times
# Source text: MMP-9 mRNA is elevated greater than 350-fold by RANK-L, but is not increased by TNFα. This specificity is helpful in screening for inhibitors of RANK signal transduction.
# [1] = system: MMP-9 promoter (nucleotides 1769-3591 of SEQ ID NO:11); experiment: pSIR/MMP-9 hIL-2 αR reporter in RAW264.7 cells, flow cytometry; assay type: cell-based, murine; conditions: RAW264.7 cells stably expressing pSIR/MMP-9
# Source text: The location of the RANK-responsive portion of MMP-9 promoter was more narrowly identified by testing further truncations of the promoter. A PVUII/BGL2 restriction fragment including the 5′-proximal 1822 bp of the MMP-9 promoter was fused with a BLGII/EcoRI restriction fragment encoding the human IL-2 receptor a in the multicloning site of the pSIR retroviral vector (Clontech). The resulting plasmid, which was named pSIR/MMP-9, is responsive to RANK and is useful in assays to identify RANK antagonists. The region of the MMP-9 promoter present in pSIR/MMP-9 corresponds to nucleotides 1769-3591 of SEQ ID NO:11.
# pSIR/MMP-9 was introduced into RANK responsive cells as follows. Retroviral particles were prepared after transfection of 293/E packaging cells with pSIR/MMP-9. RAW264.7 cells were infected with these particles and neomycin resistant colonies stably expressing the reporter were isolated. Treatment of these cells with RANKL led to an increase in the cell surface expression of the hIL-2 αR, as detected by flow cytometry using the mouse mAb (clone 2A3) anti-human IL-2 αR as a reagent for detecting the IL-2R. […]
# Surface expression of human IL-2α receptor is detected by flow cytometry in the following manner. […] After washing the cells, the fluorescence intensity is measured using a flow cytometer, such as a FACS scan (Becton Dickinson).
# RANK = experiment: radioimmune assay of reporter surface expression in 293/EBNA cells; assay type: cell-based; conditions: 48 hours after transfection
# Description: Additionally, surface expression of human IL-2α receptor can be analyzed using a radioactive antibody against IL-2α receptor. For the mIL-4R-specific radioimmune assay, mouse anti-human IL-2α monoclonal antibody reactive with mIL-4R was labeled with ^125I via a Chloramine T conjugation method; the resulting specific activity is typically […]. After 48 hours, cells transfected with pGL2-MMP-9/human IL-2 receptor were washed once with media (DMEM, 12 5% FBS). Non-specific binding sites were blocked by the addition of pre-warmed binding media containing 5% non-fat dry milk and incubation at 37° C./5% CO2 in a tissue culture incubator for one hour. The blocking media was decanted and binding buffer containing ^125I anti-mIL-4R (clone M1; rat IgG1) was added to the cells and incubated with rocking at room temperature for 1 hour. After incubation of the cells with the radio-labeled antibody, cells were washed extensively with binding buffer (2 X) and twice with phosphate-buffered saline (PBS). Cells were lysed in 1 ml of 0.5M NaOH, and total radioactivity measured with a gamma counter.
# [2] = system: endogenous c-jun kinase (JNK); experiment: JNK immune-complex kinase assay in transfected 3T3 cells; assay type: cell-based, murine; conditions: 3T3 cells 24 hours after transfection, absence of RANK-L stimulation
# Description: This example describes evaluating murine 3T3 cells transfected with plasmids containing DNA encoding human FEO RANK (SEQ ID NO:9), and murine 3T3 cells expressing recombinant DNA encoding human wild type RANK (SEQ ID NO:1) for their relative ability to activate endogenous c-jun kinase (JNK) in the absence of RANK-L stimulation. JNK is known to be activated as a consequence of RANK signal transduction.
# For JNK assays, whole cell extracts were prepared from 3T3 cells 24 hours after transfection. Cells were lysed in a buffer containing 20 mM HEPES, pH 7.4, 2 mM EGTA, 50 mM β-glycerol phosphate, 1 mM DTT, 1 mM sodium orthovanadate, 1% Triton-X 100, 10% glycerol and the protease inhibitors leupeptin, pepstatin A, and PMSF. Clarified lysates were immunoprecipitated with 1 μg each anti-JNK (FL) and anti-JNK (C17) antibodies (both from Santa Cruz Biotechnology, Inc. Santa Cruz, Calif.). […] JNK activity was determined by an immune-complex assay using 1 μg of a fusion protein of glutathione-S-transferase and amino acids 1-169 of […] (GST-cJun (1-169)) (UBI, Lake Placid, N.Y.) and 5 μCi of [^32P]-ATP as substrate in 40 μl of assay buffer at 30° C. for 20 min. […]
molecule,measurement,setting,value
TNFα [reference compound],TRAP mRNA elevation,mouse TRAP mRNA,about 2.3 fold
same,MMP-9 mRNA elevation,mouse MMP-9 mRNA,not increased
B1,cell surface expression of the hIL-2 αR,[1],increase
same,time to maximal level of hIL-2 α receptor expression,[1],≤ 48 h
B2,"transcriptional activation, reporter detected on the cell surface",RANK,resulted in transcription of muIL-4R
B3,activation of JNK,[2],activated
